Data from article PMC3767657.

Assays:
[1] = molecular target: HIV-1 integrase (IN), wild type, in virus particles (HIV-1 (NL4.3-based vector)); experiment: cross-linking; purified virus (50 ng p24 equivalents) in PBS/0.25% Triton X-100 treated with BS3 for 20 min at room temperature, quenched with Tris-HCl pH 7.5, reducing SDS-PAGE, anti-IN Western blot; virus produced in the presence of DMSO or 1 uM GS-B, or cell-free virus treated with GS-B
[2] = molecular target: HIV-1 integrase (IN) T174I, in virus particles (HIV-1 (NL4.3-based vector)); experiment: as above

| Substance | stoichiometry N [1] | stoichiometry N [2] |
| --- | --- | --- |
| HIV-1 integrase (IN), wild type, in virus particles (enzyme) | 2 |  |
| HIV-1 integrase (IN) T174I, in virus particles (enzyme) |  | 2 |
